Series [1] deals with T1, TMR-KRRR-NH2 (synthetic).
T1 sequence: KRRR
The experiment in a line: FP. The following applies: 2 mM NaCl, pH 7.4.

The subject of series [2] is TMR-(RS)4-NH2 (synthetic). Description: FP. The following applies: 2 mM NaCl, pH 7.4.
Series [3] has as its system T2, TMR-(CH2)5-KRRR-NH2 (synthetic).
T2 sequence: KRRR
The experiment in a line: FP. Particulars: 2 mM NaCl, pH 7.4.

In series [4] the test system is T3, TMR-beta3(KRRR)-NH2 (synthetic).
T3 sequence: KRRR
The experiment in a line: FP. The following applies: 2 mM NaCl, pH 7.4.

For series [5], the system named is T4, TMR-RRRR-NH2 (synthetic).
T4 sequence: RRRR
Description: FP. The following applies: 2 mM NaCl, pH 7.4.

Series [6] deals with T5, TMR-RRRK-NH2 (synthetic).
T5 sequence: RRRK
The experiment in a line: FP. The following applies: 2 mM NaCl, pH 7.4.

In series [7] the test system is T6, TMR-(RL)4-NH2 (synthetic).
T6 sequence: RRRR
Description: FP. Particulars: 2 mM NaCl, pH 7.4.

Series [8] has as its system T7, TMR-KRRR (C-terminal carboxylate) (synthetic).
T7 sequence: KRRR
The experiment in a line: FP. The following applies: CITED (Xiong et al); pH 7.4; cited from earlier work.

In series [9] the test system is T8, TMR-beta3(RRRK)-NH2 (synthetic).
T8 sequence: RRRK
Description: FP. The following applies: 2 mM NaCl, pH 7.4.

The test system of series [10] is T9, TMR-RRRR (C-terminal carboxylate) (synthetic).
T9 sequence: RRRR
The experiment in a line: FP. The following applies: CITED (Xiong et al); pH 7.4; cited from earlier work.

Series [11] deals with T10, TMR-KKKK-NH2 (synthetic).
T10 sequence: KKKK
Description: FP. The following applies: 2 mM NaCl, pH 7.4.

In series [12] the target is T11, KRRRC(-TMR)-NH2 (synthetic).
T11 chain: KRRRC(TMR(3))-NH2
Description: FP; 2 mM NaCl, pH 7.4; text p253 states 46 ± 9. Particulars: tags: TMR on Cys; free N-terminal amine; C-terminal amide.

Primed or numbered codes have the meaning given here. Ends that are not written are not given here. TMR(3) = tetramethylrhodamine (TMR) label conjugated to the Cys side chain

With “GACGACTAGGACGACGACGAGGATGACGAC (double strand) [30-mer dsDNA]”, the dissociation constant (Kd) in series [1] came to 46 nM; in series [2], 129 nM; in [3], 46 nM; in series [4], 41 nM; in series [5], 31 nM; in series [6] it was 28 nM. The Kd was 13 nM in series [7]; 197 nM in series [8]; 49 nM in [9]; 236 nM in series [10]; 53 nM in series [11].

B1: 30-mer dsDNA (dsDNA)
DNA 1: GACGACTAGGACGACGACGAGGATGACGAC
DNA 2: GTCGTCATCCTCGTCGTCGTCCTAGTCGTC
Take B1: binding in series [12] was put at a Kd of 54 nM.

As a reminder, the Kd is the constant that tells how readily two partners part at equilibrium.

The values are drawn from patent US20210300974, “ARTIFICIAL TRANSCRIPTION FACTORS COMPRISING A SLIDING DOMAIN AND USES THEREOF” (THE BROAD INSTITUTE, INC., published 2021).
